In this series the test system is MS2 coat protein. Put plainly: apparent KD of MS2 coat protein; designed switch direction (-1 OFF switch, 1 ON switch): -1; higher = weaker reporter binding. The method, boiled down: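 Stalled E. coli RNA polymerase transcribed designed RNA switches on Illumina chips, which were then titrated with SNAP-549-labelled MS2 coat protein, doubling from 0.7 or 1.5 nM to 3 µM. Steps lasted from 0.8–1.5 h at the lowest concentration to 10–20 min at the highest. The apparent KD is each design's median over clusters of curve-fitted normalised fluorescence.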

[1] abbreviates: input ligand: microRNA oligo, concentration not stated.
Where [2] appears, read: Eterna round: R95, input ligand: microRNA oligo, concentration not stated.
Where [3] appears, read: Eterna round: R95, input ligand: FMN 200 uM.
Setting [4] is: Eterna round: R95, input ligand: none.

Results on 30 sequences are retold here after the supplement of paper PMC9170038.

Turning to “UUGUUCCAUGUAGGAUAUGCAUAUUCUCAUUAUGCAGAAGGACAUGAGGAUCACCCAUGUAUGUUAUUAUUAUAUGUUACAUGU [Design 2] (Eterna round: R96, puzzle: Exclusion NG 1)”, the “apparent KD of MS2 coat protein” value is, setting by setting: (input ligand: FMN 200 uM) 613 nM; under setting [1], 54.6 nM; (input ligand: none) 78.5 nM.

For “CAUAUGGGAGGAUAUGCAUAGAUAAAGAAACAUGUUCAACCACAUGAGGAUCACCCAUGUAGAAGGCCCAUAUG [Mat - Same state - Mayanna Mod - D102] (Eterna round: R96, puzzle: Exclusion 2)”, the “apparent KD of MS2 coat protein” value is 266 nM (input ligand: FMN 200 uM), 22.7 nM under setting [1] and 32.8 nM (input ligand: none).

Turning to “GGUGGACAUGAGGAUCACCCAUGUGAGGAUAUCGGCUAUCUUGUCGCUGUCGGUUGCUCGAGAAGGCACAUUGU [Exclusion 1 V95] (puzzle: Exclusion 1)”, under setting [2], the “apparent KD of MS2 coat protein” value was 69.2 nM.

For the sequence “UAUUAGCAAGCAGGAUCCCACAUGAGGAUCACCCAUGUGCUCGUCUUAUAAGGUACUGUGACGAAAGUCACGGUACC [Sensor 3, v1 - 90] (puzzle: Sensor v3, turn-off variant 1)”, the “apparent KD of MS2 coat protein” value runs as follows: under setting [3], 81.3 nM; under setting [2], 186 nM; under setting [4], 90.9 nM.

Consider “GAUUAUGCGAGCUUUAGGGACAUGAGGAUCACCCAUGUUCGUCUUAUUAGUCUAAAUACGCUGACAUACCUAAAUCU [JMF 94] (puzzle: Sensor v3, turn-off variant 1)”, for which the “apparent KD of MS2 coat protein” value under setting [3] came to 14 nM, the “apparent KD of MS2 coat protein” value under setting [2] turned out to be 18 nM and the “apparent KD of MS2 coat protein” value under setting [4] turned out to be 18.2 nM.

On to “UUAGAUAGGUCAGGAUAUCGAUGAUUGAAUUGUAUGAUUUACAUGAGGAUCACCCAUGUUUUGUACGAGAAGGGACGUUAGUUU [JR_ExcNG2_Sub019] (Eterna round: R96, puzzle: Exclusion NG 2)”, for which the “apparent KD of MS2 coat protein” value (input ligand: FMN 200 uM) stood at 25.3 nM, the “apparent KD of MS2 coat protein” value under setting [1] amounted to 26.1 nM and the “apparent KD of MS2 coat protein” value (input ligand: none) turned out to be 33.5 nM.

In the case of “GACAGGGCAGGAUAUCGAGAUCCUCACAUGAGGAUCACCCAUGUUCAGUCGAAAGACUGACGAGAAGGGCCGUGUC [Omei Ex5 E3] (Eterna round: R97, puzzle: Exclusion 5)”, the “apparent KD of MS2 coat protein” value by setting is: (input ligand: FMN 200 uM) 36.8 nM; (input ligand: none) 33.2 nM.

For the sequence “AAUUAGCAAGCGAGAUCCCACAUGAGGAUCACCCAUGUGCUCGUCUUAUAUAAGGUACUGUACGAGAGUACGGUACC [Mat - Sensor, turn-off var - Eli Mod - D30] (Eterna round: R97, puzzle: Sensor, turn-off variant 1)”, the “apparent KD of MS2 coat protein” value (input ligand: FMN 200 uM) came to 12.1 nM and the “apparent KD of MS2 coat protein” value (input ligand: none) was 10.6 nM.

For the sequence “AUCAGCUCGUGAGGAUAUACAUGAGGAUCACCCAUGUGGUCAUUAGCAGCUUCGGCUGCAUUAAUGUAGAAGGCACGAGCUGAU [ENG2/8-A2] (Eterna round: R96, puzzle: Exclusion NG 2)”, the “apparent KD of MS2 coat protein” value turned out to be 360 nM (input ligand: FMN 200 uM), 732 nM under setting [1] and 829 nM (input ligand: none).

Take “GGUUGGCGAGGAUAUACAUGAGGAUCACCCAUGUGAGAGAAAAAACUGAGGAAGAAAAGUAGAAGGCGCUGACG [salish99_ex3_r3_026] (puzzle: Exclusion 3)”: the “apparent KD of MS2 coat protein” value reads like this: under setting [3], 117 nM; under setting [2], 23.4 nM; under setting [4], 35.5 nM.

As for “CAAAUCUGAGGAUAUCGAUAUUUGUACAUGAGGAUCACCCAUGUCCUAUUUAUUAUAUUUCGAGAAGGCAGUGUAU [JR_E5_Sub094] (puzzle: Exclusion 5)”, the “apparent KD of MS2 coat protein” value under setting [2] came out at 19.2 nM.

As for “AUCAUGUAAGGAUAUCUUAUAUGGAUCGAAAGAUCAAGUUAAGAGAAGGUACAUGAGGAUCACCCAUGUAUAAC [Ex4-3: 33] (puzzle: Exclusion 4)”, the “apparent KD of MS2 coat protein” value under setting [2] came out at 19.4 nM.

For the sequence “UCUGCCGCCGUGAGGAUAUGCCCGCGCGAACGCGGGCAGAAGGCACAUGAGGAUCACCCAUGUCCCGCGGUUUU [salish99_bmx4_r4_132] (Eterna round: R97, puzzle: Brourd's mod of Exclusion 4)”, the “apparent KD of MS2 coat protein” value turned out to be 34.7 nM (input ligand: FMN 200 uM) and 17.2 nM (input ligand: none).

For the sequence “UUGCAGUCGUCAGGAUAUAGUAUUACGGCCAUUUUUUUUUUCAUACAUGAGGAUCACCCAUGUCGCUAGAAGGGAUUAUCGAUU [salish99_ExNG2_r04_103] (Eterna round: R96, puzzle: Exclusion NG 2)”, the “apparent KD of MS2 coat protein” value by setting is: (input ligand: FMN 200 uM) 71 nM; under setting [1], 57.1 nM; (input ligand: none) 67 nM.

“GUUUAGCAAGCGAGAUCCCACAUGAGGAUCACCCAUGUGCAUCCAGAAUUACUGGGUGCAAAAGCUCGUCUUAUAUG [mod-El /newdang-1] (Eterna round: R97, puzzle: Sensor, turn-off variant 1)”: the “apparent KD of MS2 coat protein” value (input ligand: FMN 200 uM) worked out at 71.8 nM and the “apparent KD of MS2 coat protein” value (input ligand: none) stood at 71.8 nM.

Regarding “UUCCUCGUUGUGAGGAUAUCGUCCGUGUUUUGUUACGAGAAGGCACAUGAGGAUCACCCAUGUUACUUGAUGUU [JR_BMOE4_Sub073] (puzzle: Brourd's mod of Exclusion 4)”, the “apparent KD of MS2 coat protein” value under setting [2] was determined as 18.9 nM.

For the sequence “GAGUGCUAAGGAUAUACAUGAGGAUCACCCAUGUGCUUCAGCUAGGAGACUAGCAUUGGUAGAAGGUAGUACUC [Mod of lroppy 2 - Jieux - Exclusion 3] (Eterna round: R97, puzzle: Exclusion 3)”, the “apparent KD of MS2 coat protein” value runs as follows: (input ligand: FMN 200 uM) 60.3 nM; (input ligand: none) 14.7 nM.

As to “UUUUUACGAGGAUAUCGAUUGUGGUACAUGAGGAUCACCCAUGUAUGUGAUAUUGUAUUUCGAGAAGGCGUUCAGU [JR_E5_Sub060] (puzzle: Exclusion 5)”, under setting [2], the “apparent KD of MS2 coat protein” value came out at 21.5 nM.

For “UUCGUGCAGCUUUGCUGUACGAGUACAUGAGGAUCACCCAUGUAGGAUAUGGUACGCUUUGCGUGCUAGAAGGAUAUGUGUAGC [salish99_ExNG3_r04_504] (Eterna round: R96, puzzle: Exclusion NG 3)”, the “apparent KD of MS2 coat protein” value under setting [1] came out at 25.7 nM.

Turning to “UACAUGAGGAUCACCCAUGUUUUGUCGUGUAUGGUACCCGUUUAGGAUAUCGUGUUAUUGGACCGCGAGAAGGAGAGUAUCAAU [Excl-NG3-LRO04] (Eterna round: R96, puzzle: Exclusion NG 3)”, the “apparent KD of MS2 coat protein” value reads like this: (input ligand: FMN 200 uM) 26.5 nM; under setting [1], 22.8 nM; (input ligand: none) 29.4 nM.

In the case of “CACCUGAAAGGAGGAUAUCUUACAUGAGGAUCACCCAUGUAAUAAAUGAGAAUUUCGAAUGUAAUAGAGAAGGCCUGAAAAGGC [Ostracism 85 - Jieux - Exclusion NG 2] (Eterna round: R96, puzzle: Exclusion NG 2)”, the “apparent KD of MS2 coat protein” value runs as follows: (input ligand: FMN 200 uM) 30.6 nM; under setting [1], 25 nM; (input ligand: none) 34.4 nM.

As to “UUAAUUAGCUCGCUAGAUCCUCACAUGAGGAUCACCCAUGUGCAGGAUAUCAGCUCGUUUAGAGCUGAGAAGGGCACUGCGAGC [ExNG3/10-A2] (Eterna round: R96, puzzle: Exclusion NG 3)”, the “apparent KD of MS2 coat protein” value reads like this: (input ligand: FMN 200 uM) 147 nM; under setting [1], 120 nM; (input ligand: none) 114 nM.

With “CGCUAGUCAGGAUAUACGAACAUGUCAAAAGACGUGAAGGGACAUGAGGAUCACCCAUGUAGAAGGGACUAGCA [salish99_ex2_r3_014] (puzzle: Exclusion 2)”, the “apparent KD of MS2 coat protein” value came to 147 nM under setting [3], 22.5 nM under setting [2] and 24.9 nM under setting [4].

Take “ACAUGUUAUCCAUGAUAUCACAUGAGGAUCACCCAUGUUAUGGCGAUUUUGAGGUGUAAGCUUUGUGCUCGACUUAU [JR_STOV1_Sub056] (Eterna round: R97, puzzle: Sensor, turn-off variant 1)”: the “apparent KD of MS2 coat protein” value by setting is: (input ligand: FMN 200 uM) 45 nM; (input ligand: none) 50 nM.

Take “UUGUUACGAUUAGGAUAUUAUUGAUUGGACAGUAUGAUUUACAUGAGGAUCACCCAUGUUACUUUUAAGAAGGAAUCGUAUUAU [JR_ExcNG2_Sub090] (Eterna round: R96, puzzle: Exclusion NG 2)”: under setting [1], the “apparent KD of MS2 coat protein” value turned out to be 14.8 nM.

As for “UUAAAUCAUGUAGGAUAUGCGUGGCGAAGCUAUGCAGAAGGACAUGAGGAUCACCCAUGUGCUGCGGUCUGCGUACAGAUCGCU [JL ENG1 1.03] (Eterna round: R96, puzzle: Exclusion NG 1)”, the “apparent KD of MS2 coat protein” value (input ligand: FMN 200 uM) was 98.7 nM, the “apparent KD of MS2 coat protein” value under setting [1] turned out to be 76.4 nM and the “apparent KD of MS2 coat protein” value (input ligand: none) is 142 nM.

Consider “UAGAUACAUGAGGAUCACCCAUGUGAGGAUAUGAGAAUUAGUUUAAAUGAAUUAAUUUUCAGAAGGCACGGAGG [JR_Ex1_Sub053] (Eterna round: R97, puzzle: Exclusion 1)”, for which the “apparent KD of MS2 coat protein” value by setting is: (input ligand: FMN 200 uM) 180 nM; (input ligand: none) 123 nM.

On to “CUAAUACAUCAGGAUAUCUAUGAUUAUAGCCAUAGAGAAGGGAUGACAUGAGGAUCACCCAUGUCAAAGGGUGA [eternacac ex6r4 sub21] (Eterna round: R97, puzzle: Exclusion 6)”, for which the “apparent KD of MS2 coat protein” value reads like this: (input ligand: FMN 200 uM) 426 nM; (input ligand: none) 879 nM.

With “AUAAUAAAACAUGAGGAUCACCCAUGUGGGUCGUUCUACUGGCAGGAUAUCGCCAGACAAUAAAACGAGAAGGGCCAGUUAAUA [Leanerrean] (Eterna round: R96, puzzle: Exclusion NG 3)”, the “apparent KD of MS2 coat protein” value was 168 nM (input ligand: FMN 200 uM), 92.6 nM under setting [1] and 86 nM (input ligand: none).

For “GUCCGACAUGAGGAUCACCCAUGUGAGGAUAUGCGAUUAGCUGCUAGGUAGUUAGUAUGUAGAAGGUGCAUGAA [EX1 #75] (Eterna round: R97, puzzle: Exclusion 1)”, the “apparent KD of MS2 coat protein” value runs as follows: (input ligand: FMN 200 uM) 18.8 nM; (input ligand: none) 17.5 nM.
